Values belong to the molecule of their own block, whether it stands above or below them. No end group written: not given here.
Experiments:
[1] = biological target: Arc(207-278) binding to TARPγ2 peptide (Rattus norvegicus, UniProt Q63053); settings: Figure S5C; chlorpromazine data not shown
[2] = biological target: T1, RnArc (207-370), Arc GAG domain, wild type (rat, UniProt Q63053 207-370); experiment: pull-down
T1 sequence (looked up): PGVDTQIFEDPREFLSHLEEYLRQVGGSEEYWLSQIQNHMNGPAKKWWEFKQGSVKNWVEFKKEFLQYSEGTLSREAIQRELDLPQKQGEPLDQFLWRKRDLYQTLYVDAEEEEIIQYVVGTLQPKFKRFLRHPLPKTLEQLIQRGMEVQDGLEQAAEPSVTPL

[3] = biological target: T1, RnArc (207-370), Arc GAG domain, wild …; experiment: fluorescence polarisation
[4] = biological target: T2, Arc N-lobe (207-277) (rat, UniProt Q63053 207-277); experiment: pull-down
T2 sequence (looked up): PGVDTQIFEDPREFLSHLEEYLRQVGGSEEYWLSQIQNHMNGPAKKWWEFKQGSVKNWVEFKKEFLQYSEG

Molecule: CN1CCN(CCCN2c3ccccc3Sc3ccc(C(F)(F)F)cc32)CC1 [Trifluoperazine]
inhibition of Arc N-lobe binding [1]: inhibited binding, but with lower affinity

Molecule: {GST}-DRHKQLRATARATDYLQASAITRIPSYRYRYQRRSRSSSRSTEPS (domain or fragment, mouse, UniProt O88602 203-247, looked up) [GST-TARPγ2 fragment (203-247)]
binding result [2]: binds

Molecule: RTPVFV (peptide, UniProt Q8R5H6 315-320, looked up) [WAVE1 peptide (aa315-320)]
binding result [3]: binds

Results, then the molecule that gave them:

binding result [3]: binds
B1: GST-TARPγ2 cytoplasmic tail (203-323) (domain or fragment, mouse, UniProt O88602 203-323, looked up)
chain: DRHKQLRATARATDYLQASAITRIPSYRYRYQRRSRSSSRSTEPSHSRDASPVGVKGFNTLPSTEISMYTLSRDPLKAATTPTATYNSDRDNSFLQVHNCIQKDSKDSLHANTANRRTTPV

binding result [4]: binds
Molecule: TGLIENRPQSPAAGRTPVFVSPTPPPPPPPLPSALSTSSLRAS (domain or fragment, mouse, UniProt Q8R5H6 301-343, looked up) [GST-WAVE1 (aa301-343)]

Reference: paper PMC4409568 (Neuron, 2015)
